Patent US20100095387A1, “METHODS AND REAGENTS FOR SCREENING NEW DRUGS AND FOR TREATING ION PUMP ASSOCIATED DISORDERS AND DISEASES” (priority 2005, published 2010)
Entries after “also recorded” stand apart in the source; their conditions may differ.

B1: C-Ag20z8: C-Ag20 isoform having the z8 splice variant, SEQ. ID NO. 2 (protein)
chain: MDPRTYIEYLNAVTESELTNEIPAEKALQSNHFELTLRTEATQGWLVLWIGKAAERADYMALAIVDGHLQLSYDLASQPVVLRSTVKVNTNRWLRVRAHREHREGSLQVGNEAPVTSSSPLGATQLDTDGALWLGGLQKLPVGQPLPKAYGTGFVGCLRNVVGHRQLHLLEDAVTKPELRPCPTLNSKLGPEQKLISEEDLNSAVDHHHHHH
modifications: Synthetically produced sequence
B2: C-Ag20z0: C-Ag20 isoform having the z0 splice variant, SEQ. ID NO. 1 (protein)
chain: MDPRTYIEYLNAVTESEKALQSNHFELTLRTEATQGWLVLWIGKAAERADYMALAIVDGHLQLSYDLASQPVVLRSTVKVNTNRWLRVRAHREHREGSLQVGNEAPVTSSSPLGATQLDTDGALWLGGLQKLPVGQPLPKAYGTGFVGCLRNVVGHRQLHLLEDAVTKPELRPCPTLNSKLGPEQKLISEEDLNSAVDHHHHHH
modifications: Synthetically produced sequence
B3: rC-Agy4z8: soluble 95-kD COOH-terminal fragment of rat agrin, active "neural" isoform (protein)
chain: AATGTTAAMATARATTVSRLPASSVTPRVYPSHTSRPVGRTTAPPTTRRPPTTATNMDRPRTPGHQQPSKSCDSQPCLHGGTCQDQDSGKGFTCSCTAGRGGSVCEKVQPPSMPAFKGHSFLAFPTLRAYHTLRLALEFRALETEGLLLYNGNARGKDFLALALLDGRVQFRFDTGSGPAVLTSLVPVEPGRWHRLELSRHWRQGTLSVDGETPVVGESPSGTDGLNLDTNLYVGGIPEEQVAMVLDRTSVGVGLKGCIRMLDINNQQLELSDWQRAAVQSSGVGECGDHPCLPNPCHGGALCQALEAGMFLCQCPPGRFGPTCADEKSPCQPNPCHGAAPCRVLSSGGAKCECPLGRSGTFCQTVLETAGSRPFLADFNGFSYLELKGLHTFERDLGEKMALEMVFLARGPSGLLLYNGQKTDGKGDFVSLALHNRHLEFCYDLGKGAAVIRSKEPIALGTWVRVFLERNGRKGALQVGDGPRVLGESPKSRKVPHTMLNLKEPLYIGGAPDFSKLARGAAVSSGFSGVIQLVSLRGHQLLTQEHVLRAVDVSPFADHPCTQALGNPCLNGGSCVPREATYECLCPGGFSGLHCEKGLVEKSVGDLETLAFDGRTYIEYLNAVIESPETLDSRALFSEKALQSNHFELSLRTEATQGLVLWIGKAAERADYMALAIVDGHLQLSYDLGSQPVVLRSTVKVNTNRWLRIRAHREHREGSLQVGNEAPVTGSSPLGATQLDTDGALWLGGLQKLPVGQALPKAYGTGFVGCLRDVVVGHRQLHLLEDAVTKPELRPCPTP

What was measured:
α3Na+/K+-ATPase [1] = target: T1, α3Na+/K+-ATPase (Mus musculus, UniProt Q6PIC6); assay: Whole cell current clamp of cultured cortical neurons, channel blockers present; assay type: cell-based; conditions: fragment alone
α3Na+/K+-ATPase [2] = target: T1, α3Na+/K+-ATPase; assay: Na+ imaging (SBFI-AM) of cultured cortical cells; assay type: cell-based
cardiac myocytes = assay: Spontaneous contraction frequency of cultured cardiac myocytes; assay type: cell-based, mouse; conditions: Agrn+/− and Agrn−/− myocytes grown in fragment; listed as C-Ag208
Protocol: FIG. 17. Cardiac myocyte contraction is agrin dependent. Cardiac myocytes were prepared from hearts of individual embryos produced by heterozygous pairings. The genotype of cultures was determined by PCR analysis of tissue samples from each embryo. Myocytes were maintained in 199 medium containing 10% FCS as described (Mitcheson et al., 1998). At 5 days in culture, the frequency of spontaneous contractions was determined by counting contractions in myocytes from 5 random fields at 300× magnification for 30 seconds. Contraction frequency is dependent on Agrn gene dosage such that Agrn−/−>Agrn+/−>Agrn+/+. Addition of C-Ag208 to the growth medium rescues the Agrn mutant phenotype whereas C-Ag15 increased the contraction frequency of wild type myocytes to a level similar to Agrn−/− cells. Bars show mean±SEM for a minimum of 2 independent platings from 3 embryos, except for Agrn+/−treated with C-Ag208, which was a single plating of 2 embryos. All data were collected blind with respect to genotype and agrin treatment. *** p≦0.001. ANOVA with Bonferroni post-hoc pair-wise comparison.
Quantitative studies confirmed and extended these observations by showing that the frequency of myocyte contraction is dependent on agrin gene dose: Agrn−/− myocyte contraction frequency is about 2-fold higher and Agrn+/− 1.5-fold higher than Agrn+/+ myocytes (FIG. 17). To learn whether the effect of the Agrn mutation on myocyte contraction is a direct result of the loss of agrin expression the effects of growing the cells in media supplemented with C-Ag208, an active agrin fragment, or C-Ag15, the agrin antagonist was next examined.

[3] = target: T2, α3 subunit of the Na+/K+-ATPase (Mus musculus, UniProt Q6PIC6); assay: Chemical cross-linking of agrin fragments to cortical neurons, immunoprecipitation and immunoblot; assay type: binding; conditions: immunoprecipitation with phosphotyrosine antibody mAb4G10
T2 construct: a 110 kDa band characteristic of the native α3Na+/K+-ATPase; endogenous in cells; host or cells: primary mouse cortical neurons, 10-16 days in culture
Protocol: Membrane impermeant chemical cross-linking agents BS^3 and DMA were used to stabilize the bond between agrin and its binding sites on cell surface membranes. Cultured neurons were washed briefly in PBS containing 10 mM EDTA followed by preincubation with one or more agrin fragment in PBS^2+ for 30 minutes at room temperature and then cooled on ice prior to addition of a 10× solution of cross-linking agent to a final concentration of 0.1 mM. The cross-linking reaction was allowed to proceed for 30 minutes after which any unreacted cross-linker was quenched and removed by washing with ice cold PBS^2+ containing 50 mM ethanolamine. For immunoblot analysis, cells were scraped into ice-cold TI buffer (20 mM Tris, pH 7.4; 10 mM EDTA; protease inhibitors (Sigma, P8340)) then Dounce homogenized and membrane fraction recovered by centrifugation. For the immunoprecipitation studies, cells were scraped and homogenized in TI buffer containing 150 mM NaCl and 0.5% Triton X-100. Cell extracts were cleared by centrifugation and aliquots of the detergent soluble fraction incubated with the appropriate antibody at 4° C. overnight. Antigen-antibody complexes were precipitated with either protein A or protein G and resuspended in SDS-PAGE sample buffer for immunoblot analysis.
Ligand induced phosphorylation is a common first step in membrane receptor activation and inhibition of tyrosine kinase activity blocks agrin signalling in central nervous system neurons. To determine if agrin induced phosphorylation of the putative agrin receptor, membranes from neurons cross-linked to C-Ag208 or C-Ag15, alone or in combination, were dissolved, in a detergent-containing buffer and aliquots immunoprecipitated with RAg1 or the phosphotyrosine antibody mAb4G10 (Upstate). Immunoprecipitated proteins were analyzed by immunoblotting with a monoclonal antibody (9E10.2, Invitrogen) against the COON-terminal myc tag on the agrin fragments.
To confirm the results of the mass spectrometry the ability of different α-subunit antibodies to recognize the putative agrin-Na^+/K^+-ATPase complex was tested. […]

[4] = system: cultured cortical neurons; assay: Firing properties of cultured cortical neurons in normal external solution; assay type: cell-based, mouse; conditions: normal external solution
[5] = system: layer V neurons in acute cortical slices; assay: Whole cell current clamp of layer V neurons in acute cortical slices; assay type: cell-based, mouse
agrin receptors = agrin receptors (Mus musculus, UniProt Q6PIC6); assay: Agrin receptor immunohistochemistry, binding of short agrin fragments to live cortical neurons
Protocol: The distribution of agrin receptors was studied using agrin deletion fragments as affinity probes. Neurons, plated on glass coverslips, were washed briefly (1-2 min) in cold PBS containing 10 mM EDTA followed by a second wash in cold PBS alone before incubation for 15 min at 4° C. with 1 pM recombinant mouse agrin in NBM. In some experiments, labeling with mouse agrin was performed in the presence of various concentrations of rat rC-Ag95y4z8 or rC-Agy0z0. Control cultures were treated with vector control protein or an equivalent volume of vehicle in which the recombinant agrin was dissolved. Cells were then washed in cold NBM, fixed for 40 min on ice in 4% PFA in PBS, then washed in PBS and blocked for 1 h in PBSB. Recombinant agrin was detected through the COOH-terminal 6× polyhistidine tag using an anti-his antibody (1:500; Invitrogen). In experiments where cells were double labeled for synaptophysin, the anti-synaptophysin:antiserum (1:400) was also added at this step. Incubations were performed overnight at 4° C. in PBSB, followed by labeling with fluorescein conjugated goat anti-mouse and Texas red labeled anti-rabbit antibodies as described in the previous paragraphs. In some experiments, the amount of mouse agrin bound was estimated by digital photomicrography using the public domain NIH Image program (http://rsb.info.nih.gov/nih-image/).

Molecule	effect on neuron membrane potential (α3Na+/K+-ATPase [1])	neuronal intracellular Na+ (α3Na+/K+-ATPase [2]; fragment or ouabain alone, neurons)	intracellular Na+ in non-neuronal cells (α3Na+/K+-ATPase [2]; non-neuronal cells)	contraction frequency (cardiac myocytes)	tyrosine phosphorylation of the cross-linked complex [3]	membrane potential [4]	action potentials ([5]; bath application of fragment alone)	membrane depolarization ([5]; bath application, slices from 6-11 day-old mice) [mV]	C-Ag20z8 labeling (agrin receptors; 1:100 molar ratio of C-Ag20z8 to rC-Agy4z8)	binding of C-Ag20z8, C-Ag20z0 and C-Ag15 (agrin receptors; large (500-fold molar) excess of rat agrin)
B1	rapid and reversible depolarization	rapid increase	unaffected	significant decrease; also recorded: rescues	phosphorylated	–	–	–	–	–
B2	rapid and reversible depolarization	–	–	–	–	rapidly depolarized	appearance of high frequency action potentials	9.6±2.22	–	–
B3	–	–	–	–	–	–	–	–	barely detectable	completely blocked
